Test results reported in PMC4783143.

How the values were obtained:
Assay in all cases: NMR titration
Cx45CT (K265-I396) = Cx45CT (K265-I396) (UniProt P28229)
Cx40CT (S251-V355) = target: Cx40CT (S251-V355)
Cx43CT (S255-I382) = Cx43CT (S255-I382) (UniProt P08050)
UniProt P08050, sequence (P08050 255-382): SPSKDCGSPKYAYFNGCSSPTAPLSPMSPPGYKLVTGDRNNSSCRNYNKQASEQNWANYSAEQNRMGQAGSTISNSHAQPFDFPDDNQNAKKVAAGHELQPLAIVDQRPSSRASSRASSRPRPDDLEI

UniProt P28229, sequence (P28229 265-396): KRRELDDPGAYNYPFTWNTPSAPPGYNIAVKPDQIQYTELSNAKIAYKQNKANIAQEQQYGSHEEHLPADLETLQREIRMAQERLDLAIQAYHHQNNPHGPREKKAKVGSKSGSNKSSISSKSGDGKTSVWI

UBA domain of CIP75 (M549-S596) (from UniProt Q99NB8 549-596) (domain or fragment)
Kd (Cx45CT (K265-I396)): 286 µM | Kd (Cx40CT (S251-V355)): 600 µM | Kd (Cx43CT (S255-I382)): 278 µM
